The values below come from the supplement of paper PMC10567573.

This series can be described thus: protein stability index of a GFP-peptide fusion (GPS, HEK-293T) (PSI 1-6); higher = more stable.
Where [1] appears, read: treatment: DMSO, c terminus: a fixed tail appended.
The mark [2] stands for this setting: treatment: MLN4924 1 uM, 8 h, c terminus: a fixed tail appended.
[3] abbreviates: treatment: DMSO, c terminus: native.
Setting [4] is: treatment: MLN4924 1 uM, 8 h, c terminus: native.

± gives the standard deviation.
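Further: 24-mer peptide tiles fused after GFP, lentivirally expressed, FACS-sorted into six equal bins by GFP/DsRed ratio, decoded by Illumina sequencing, PSI is the read-weighted mean bin number.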

Take IGSKNGGKTTIILRCLDRDEPSKP [DYNC2LI1]: the protein stability index reads like this: under setting [1], 2.54 ± 0.7; under setting [2], 3.16 ± 0.32.

Regarding IIDCGDIVWSLAFGSSVPEKQSRC [WSB1], the protein stability index is, setting by setting: under setting [1], 2.12 ± 0.24; under setting [2], 2.35 ± 0.28.

As to IIHHMRLQAKALQLIVTARTTRGL [INTS4], the protein stability index was determined as 2.5 ± 0.58 under setting [1] and 2.26 ± 0.28 under setting [2].

Turning to IIYPRQQLLTLRELEMIGFIENNV [TRIP13], the protein stability index turned out to be 2.6 ± 0.37 under setting [1] and 2.26 ± 0.22 under setting [2].

Turning to IKAVTHQVKFGQQNPRQVAQSEAE [ZC3H15], the protein stability index by setting is: under setting [1], 4.86 ± 0.2; under setting [2], 4.9 ± 0.23.

Turning to IKIVLINSFGAILQGSLFGLAGLL [SLC29A1], the protein stability index came out at 2.72 ± 0.32 under setting [1] and 3.25 ± 0.2 under setting [2].

Regarding ILGKVILWILHLLLECYIQYHHSK [TMEM192], the protein stability index reads like this: under setting [1], 2.99 ± 0.51; under setting [2], 2.9 ± 0.31.

Regarding ILPKELQAWVQKHHPENGEETVTM [ZNF396], the protein stability index under setting [1] turned out to be 3.5 ± 0.07 and the protein stability index under setting [2] is 3.58 ± 0.29.

ILVTKVEEPSKYGVVVCEADTGRI [GMPPB]: the protein stability index reads like this: under setting [1], 2.75 ± 0.18; under setting [2], 2.91 ± 0.22.

Take IPAFCELPLDDQVALLRAHAGEHL [HNF4A]: the protein stability index is, setting by setting: under setting [1], 2.88 ± 0.26; under setting [2], 3.22 ± 0.33.

As to IPPSSDRTPEILKKALSGLSSRWK [CDS1], the protein stability index runs as follows: under setting [1], 2.39 ± 0.49; under setting [2], 2.29 ± 0.46.

In the case of IQYLTENIWASQSVLSACDNLSDL [IQUB], the protein stability index is, setting by setting: under setting [1], 2.49 ± 0.34; under setting [2], 2.49 ± 0.3.

Turning to IRAMGRLKIDFGDSARADDARQLF [GNAI1], the protein stability index reads like this: under setting [1], 2.63 ± 0.25; under setting [2], 2.77 ± 0.14.

With IRERILGPSHPDTSYYIRYRGAVY [FEM1C], the protein stability index by setting is: under setting [1], 2.22 ± 0.27; under setting [2], 2.1 ± 0.34.

As for IRRPRLYLLQWLKSDKALMMLFND [PLK2], the protein stability index amounted to 2.58 ± 0.48 under setting [1] and 2.75 ± 0.26 under setting [2].

The sequence IRTYLGRSPLVSGDESSLLLNAAS [RHOBTB3] had a protein stability index under setting [1] of 2.62 ± 0.35 and a protein stability index under setting [2] of 2.46 ± 0.34.

Regarding ISCFNNAPPAKLACPVCSKMVPRY [FAN1], the protein stability index is, setting by setting: under setting [1], 2.24 ± 0.19; under setting [2], 2.67 ± 0.26.

With ISSIGQVQSYMEHYCNSSTDRRVL [SPACA9], the protein stability index is, setting by setting: under setting [1], 3.23 ± 0.33; under setting [2], 3.25 ± 0.36.

With ITSSVFPSASLGKASSRKPFGILS [FBXO34], the protein stability index is, setting by setting: under setting [1], 2.65 ± 0.12; under setting [2], 2.67 ± 0.21.

As to IVDIKPANMEDLTEVITASEFHPH [PPP2R2C], the protein stability index under setting [1] was found to be 3.92 ± 0.28 and the protein stability index under setting [2] stood at 3.9 ± 0.41.

Take IVIGILSAYISNYAFANVFHGWKY [SLC2A12]: the protein stability index runs as follows: under setting [1], 3.01 ± 0.51; under setting [2], 3.25 ± 0.68.

As to IVLGPYHVKFRSLSMVSECLFSLI [MCOLN1], the protein stability index amounted to 2.94 ± 0.68 under setting [1] and 2.78 ± 0.42 under setting [2].

As for IYLSTSSSKFYDLFLMDLSEGELG [RHOBTB2], the protein stability index came to 3.38 ± 0.65 under setting [1] and 2.9 ± 0.39 under setting [2].

The sequence KAILDAEPGPRPALQPSPSIRLPL [TBC1D10A] displayed a protein stability index under setting [1] of 4.27 ± 0.15 and a protein stability index under setting [2] of 4.34 ± 0.059.

The sequence KAQRDYELKKAAYDIEVNTRRAQA [FLOT1] registered a protein stability index under setting [1] of 4.17 ± 0.11 and a protein stability index under setting [2] of 4.44 ± 0.085.

In the case of KAREKDGKGRTASPINSPARGTPS [FSD1], the protein stability index by setting is: under setting [1], 4.92 ± 0.11; under setting [2], 5.19 ± 0.27.

For KAYGWCSELIRHRRVHARKEPSH [ZNF232], the protein stability index under setting [3] was 2.75 ± 0.2 and the protein stability index under setting [4] is 2.51 ± 0.44.

KEAQYIRTERVEQAFRAIDRGDYY [PCMTD1]: the protein stability index was 3.31 ± 0.33 under setting [1] and 3.34 ± 0.28 under setting [2].

As for KELGQSQKEQGLSDNILSPVMNGG [PDZK1], the protein stability index stood at 4.73 ± 0.34 under setting [1] and 5.09 ± 0.28 under setting [2].

Consider KELGTLIPKSSDPEMRWNKGTILK [TFE3], for which the protein stability index by setting is: under setting [1], 4.06 ± 0.28; under setting [2], 4.01 ± 0.14.

In the case of KEPPLLLGVLHPNTKLRQAERLFE [APMAP], the protein stability index amounted to 2.64 ± 0.38 under setting [1] and 2.78 ± 0.47 under setting [2].

For KETLAVNYEKEEEFLTNELSRKLM [CCDC6], the protein stability index by setting is: under setting [1], 4.05 ± 0.25; under setting [2], 4.44 ± 0.27.

In the case of KEYDVARNTGAYTSSGLATASFRT [TEKT4], the protein stability index is, setting by setting: under setting [1], 3.6 ± 0.26; under setting [2], 3.69 ± 0.14.

With KGAILTTMLATRNFSAAKSLLKKP [CAMK2D], the protein stability index amounted to 2.82 ± 0.53 under setting [1] and 2.8 ± 0.32 under setting [2].

Regarding KGAVNLHMEEEVEDFLLKKPIVPT [CDC25A], the protein stability index reads like this: under setting [1], 4.14 ± 0.31; under setting [2], 4.13 ± 0.2.

With KGCSLEQISMELAKVNYVKNNICF [SLC2A12], the protein stability index is, setting by setting: under setting [1], 2.22 ± 0.35; under setting [2], 2.27 ± 0.28.

Consider KGGVQNFNKDLVQDCGFEHLVPVI [CEP70], for which the protein stability index is 2.53 ± 0.13 under setting [1] and 3.18 ± 0.46 under setting [2].

For KGLSVEFALLADKAAQQGKQEEND [SNX8], the protein stability index reads like this: under setting [1], 5.237 ± 0.033; under setting [2], 5.13 ± 0.21.

For the sequence KGTEKQTTSETQKSVQCGTWTKHA [NETO1], the protein stability index is, setting by setting: under setting [1], 4.84 ± 0.26; under setting [2], 4.82 ± 0.13.

In the case of KIKPEARRYLEKSIKMGKRNGLHL [NLN], the protein stability index is, setting by setting: under setting [1], 2.3 ± 0.44; under setting [2], 2.53 ± 0.39.

Regarding KILYDDGKMVEEVDGRATQKLIVN [PTPRD], the protein stability index by setting is: under setting [1], 3.92 ± 0.34; under setting [2], 3.605 ± 0.004.

Regarding KIRLRCQKGIPPSLRGRAWQYLSG [TBC1D10A], the protein stability index turned out to be 2.21 ± 0.094 under setting [1] and 2.09 ± 0.23 under setting [2].

With KKAAESLRRSVEKYNSARADFEQK [FCHO1], the protein stability index runs as follows: under setting [1], 4.2 ± 0.18; under setting [2], 4.43 ± 0.29.

In the case of KKENKMTWAPKNKGGEERKAEGGE [IRX6], the protein stability index came out at 5.39 ± 0.2 under setting [1] and 5.51 ± 0.27 under setting [2].

In turn, KKSNSPGTASSGSSRLPQPSGAGK [ZC2HC1A] registered a protein stability index under setting [1] of 5.25 ± 0.19 and a protein stability index under setting [2] of 5.23 ± 0.14.

Take KKTQETLSQAGQKTSAALSTVGSA [TPD52L2]: the protein stability index by setting is: under setting [1], 4.87 ± 0.24; under setting [2], 4.99 ± 0.25.

Consider KKYRLTEHERAHRGEKPHGCSLCG [ZNF649], for which the protein stability index came to 3.72 ± 0.37 under setting [1] and 3.85 ± 0.36 under setting [2].

For the sequence KLKVQALKDRGLSIPRADTLDEY [LSM1], the protein stability index was found to be 4.01 ± 0.2 under setting [3] and 4.04 ± 0.33 under setting [4].

In the case of KLLMADQDSPLDLTVRKSQSEPSE [LCOR], the protein stability index is, setting by setting: under setting [1], 4.82 ± 0.28; under setting [2], 4.921 ± 0.036.

Sequence KLYTGPGLAIHCMQVHKETIDAVP [ZNF207] displayed a protein stability index under setting [1] of 2.5 ± 0.36 and a protein stability index under setting [2] of 2.61 ± 0.3.

Regarding KNLQQTTNTTSTQMTNIGVYVSNM [IQUB], the protein stability index amounted to 3.25 ± 0.29 under setting [1] and 3.17 ± 0.22 under setting [2].

For the sequence KNQGEENGFPDSTGDPLPEISKDN [EDARADD], the protein stability index under setting [1] is 5.5 ± 0.15 and the protein stability index under setting [2] came out at 5.54 ± 0.067.
